Patent US6723697B2, “IL-16 antagonists” (Research Corporation Technologies, Inc., priority 1999, dated 2004)

Legend:
[1] = target: T1, IL-16 (Mus musculus, UniProt O54824); experiment: IL-16-induced migration of human T-cells; assay type: cell-based; settings: for inhibition of IL-16-mediated biological activity (migration of human T-cells): concentration not given; for effect on IL-16-induced migration of human T-cells: any concentration
T1 construct: polyhistidine fusion protein containing the 119 C-terminal residues encoded by the previously reported murine cDNA; polyhistidine (cleaved yes); made in house
T1 sequence (O54824 1204-1322): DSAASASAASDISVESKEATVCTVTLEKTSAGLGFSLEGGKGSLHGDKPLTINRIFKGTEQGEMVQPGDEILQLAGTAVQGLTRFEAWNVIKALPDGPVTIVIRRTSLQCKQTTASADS

[2] = target: T2, murine rIL-16 (Mus musculus, UniProt O54824); experiment: IL-16-stimulated T-lymphocyte migration, human CD4 D4 point mutants; assay type: cell-based; settings: human CD4 D4 wild type or point mutant, rIL-16 10^-9 M
T2 construct: polyhistidine fusion protein containing the 119 C-terminal residues encoded by the previously reported murine cDNA; polyhistidine (cleaved yes); made in house; host or cells: Escherichia coli strain HMS 174, vector pET16b
T2 sequence (O54824 1204-1322): T1 sequence (O54824 1204-1322)
Description: Point mutations at Leu 348 and Leu 349 in human CD4 were prepared as follows.
Initially 100 ng of wild type human CD4 cDNA (Richard Axel, Columbia University, N.Y.) contained within the mammalian expression vector pcDNA3.1(−) (Invitrogen, Carlsbad, Calif.) was subjected to the polymerase chain reaction (PCR) in the presence of 125 ng of each set of primer pairs. PCR conditions were as follows:
The time for the elongation step varied according to the relationship of 2 minutes per kilobase of plasmid DNA length. The product was then subjected to restriction digestion with the enzyme Dpn for 1 h. at 37° C. Dpn is specific for methylated nucleotides and therefore will only cut the original wide type CD4-plasmid DNA. The transformation reaction required the addition of 1 μl of the digest to 50 μl of Epicurean Blue Eschericia coli which was incubated on ice for 30 min. and finally heat shocked 42° C., 45 sec to seal the supercompent bacteria. The resultant bacteria culture was selected on ampicillin plates and sequenced to confirm mutagenesis.
Cell migration was assessed using a modified Boyden chamber. […] Cell migration is expressed as the mean % control migration.
Results from multiple experiments were analyzed using Student's t test for paired variables, and Tukey's test for multiple variables. A P value<0.05 was considered significant.
(FIGS. 10A and 10B). […] (FIGS. 11A and 11B).

## DSGQVLLE (OTHER INFORMATION: Description of Artificial Sequence:IL-16 antagonist peptide) [aa 351-358 of human CD4]
[1]
  inhibition of IL-16-mediated biological activity (migration of human T-cells): failed to inhibit

## GMWQCLLS (OTHER INFORMATION: Description of Artificial Sequence:IL-16 antagonist peptide) [aa 343-350 of human CD4]
[1]
  inhibition of IL-16-mediated biological activity (migration of human T-cells): inhibited all

## GMWQCLLSDSGQVLLE (OTHER INFORMATION: Description of Artificial Sequence:IL-16 antagonist peptide) [aa 343-358 of human CD4 D4]
[1]; dose curve, IL-16-induced migration of human T-cells
  concentration at which maximal inhibition was achieved: ≥ 10 µg/mL
[1]; peptide 10^-10 M
  block of IL-16-induced migration of human T-cells: blocked all

## KVSKREKAVWVLNPEA (OTHER INFORMATION: Description of Artificial Sequence:IL-16 antagonist peptide) [16-mer of human CD4 D4]
[1]
  effect on IL-16-induced migration of human T-cells: failed to effect

## TSPKLMLSLKLENKEA (OTHER INFORMATION: Description of Artificial Sequence:IL-16 antagonist peptide) [16-mer of human CD4 D4]
[1]
  effect on IL-16-induced migration of human T-cells: failed to effect

B1: NLTCEVWGPTSPKLMLSLKLENKEAKVSKREKAVWVLNPEAGMWQCLISDSGQVLLESNIKVLPTWSTPVQPM (peptide)
chain: NLTCEVWGPTSPKLMLSLKLENKEAKVSKREKAVWVLNPEAGMWQCLISDSGQVLLESNIKVLPTWSTPVQPM
modifications: OTHER INFORMATION: Description of Artificial Sequence:IL-16 antagonist peptide
notes: human CD4 D4 with Isoleucine substituted at position 349
[2]
  inhibition of IL-16-stimulated T-lymphocyte migration: maintained partial ability to inhibit
[2]; listed as Leucine 349 was conservatively substituted with Isoleucine
  inhibition of IL-16-stimulated T-lymphocyte migration: Partial inhibition
